We go through 2 substances from US20100272719A1.

This experiment has as its target VEGF (isoform not given). Description: cell-based or functional assay.

As to Avastin (bevacizumab) (antibody), the HUVEC tube formation on Matrigel, percent inhibition at 50 µg/ml amounted to 41.3%.

The substance “FP3′ (FLTd2-KDRd3-KDRd4-Fc chimeric fusion protein) (Fc fusion)” registered an HUVEC chemotactic migration (Transwell), percent blocked at 10 µg FP3′ of 78.3%; an HUVEC chemotactic migration (Transwell), percent blocked at 20 µg FP3′ of 94.7%; an HUVEC tube formation on Matrigel, percent inhibition at 50 µg/ml of 72.3%; a VEGF-induced cell proliferation, percent blocked at 10.7 nM FP3′ of 82.6%. This substance also displayed a rat aortic ring microvessel sprouting, percent inhibition at 100 µg/ml of 70.4%; a rat aortic ring microvessel sprouting, percent inhibition at 200 µg/ml of 90%; a rat aortic ring vessel outgrowth, more inhibition than Avastin of 15 to 33%.
